From patent US20070081991A1, “Compositions and methods for modulation of immune responses” (Pepgen Corporation, priority 2001, published 2007)
Entries after “also recorded” stand apart in the source; their conditions may differ. Marks after values point to notes of the source that are not given here.

Key:
[1] = molecular target: T1, HLA-E (Homo sapiens, UniProt P13747); assay: Peptide competition with B7sp in cytotoxic assay on K562-E*01033 cells; format: cell-based; settings: 0.1 μM B7sp together with increasing concentrations of competing peptide; effector Nishi
T1 construct: HLA-E*0101 and HLA-E*01033 cDNA encoding plasmids (pcDNA3) were provided by Drs; M. Ullbrecht and E. Weiss; expressed in transfected cells; host or cells: K562
Procedure: (§1) K562-E*01033 cells were incubated with the different peptides at 26° C. for 15-20 hours, and then tested in 2 h 51Cr release assays. In order to ensure that the levels of HLA-E with a protective peptide, and not the HLA-E levels as such, provided the protective capacity we kept the non-protective peptides, but omitted the B7sp, during the assays. (a) Killing of K562-E*01033 cells by NKL (left) or Nishi (right) after incubation with […], 300 mM hsp60sp, or 30 mM B7sp. 50 mM of P18I10 control peptide and hsp60sp was also included during the assays. Data from an E:T ratio of 30:1 is shown. The figure represents the mean of at least three experiments. Error bars indicate standard error of the mean. (b) Killing of K562-E*01033 cells by NKL (left panel) or Nishi (right panel) incubated over night with 30 mM 7sp, 300 mM P18I10 (pCtrl), 300 mM B7 R5V, 300 mM hsp60sp, or 300 mM hsp60 V5R. 50 mM of all peptides, except B7sp, were included during the assay. Peptide concentrations were chosen according to FIG. 5c. The figure represents the mean of at least three experiments. Error bars indicate standard error of the mean. (c) HLA-E cell surface expression by K562-E*01033 after the assay. A cold target preparation was prepared in parallel as in (a) and (b), and then stained with DX17 mAb (anti-HLA class I), followed by RPE-conjugated goat-anti-mouse IgG. One representative example out of more than 5 is shown. Note that, as in (a) and (b), 50 mM of all peptides, except for B7sp, was present during the time of the assay, explaining the lower HLA-E expression with B7sp compared to Hsp60sp, Hsp60 V5R and B7 R5V. (d) Killing of K562-E*01033 cells by Nishi after incubation for 30 min at room temperature with 0.1 mM B7sp and increasing amounts of competing peptides (hsp60sp, hsp60.4, B7 R5V and P18I10). All the peptides were kept throughout the assay
Briefly, K562-E*01033 cells were incubated with 0.1 μM B7sp together with increasing concentrations of competing peptides and tested in cytotoxic assays.

[2] = test system: HLA-E; assay: HLA-E stabilization assay (cell surface expression by flow cytometry); format: cell-based, human; settings: at 37° C.
[3] = test system: HLA-E; assay: as above; format: cell-based, human; settings: overnight incubation with peptide at 26° C.
Procedure: Synthetic peptides, purchased from Research Genetics, were dissolved in PBS. The peptides used were B7sp ([…]) (SEC ID NO: 3), hsp60sp ([…]) (SEC ID NO: 2), B7 R5V ([…]) (SEC ID NO: 14), hsp60 V5R ([…]) ([…]), and P18I10 ([…]) (SEC ID NO: 113) (all from Research Genetics, Huntsville, Ala.). Cells and their HLA-E transfected derivatives were incubated with synthetic peptides (3-300 μM) at 26° C. for 15-20 hours in serum-free AIM-V medium (GibcoBRL, Paisley Scotland) at a concentration of 1-3.10^6 cells/ml. Cells were then harvested, washed in PBS, stained with mAbs and analyzed by flow cytometry. Cells were subjected to stress by allowing them to grow at increasing cell density.
To test whether the hsp60-derived peptides were able to bind HLA-E, stabilized HLA-E cell surface expression was stabilized with the different synthetic peptides, by overnight incubation at 26° C. For this purpose MHC class I-deficient cell lines such as 721.221 (which lack HLA-A, -B, -C, and -G, but express HLA-E and -F intracellularly), as well as K562 cells transfected with HLA-E*01033 (K562-E*01033) or HLA-E*0101 were employed. The 721.221 cells and HLA-E transfected, but not untransfected, K562 cells express low levels of HLA-E at the cell surface during normal cell growth.

[4] = test system: CD94/NKG2A+ NK cell lines Nishi and NKL; assay: NK cell-mediated cytotoxicity, 2 h 51Cr release, peptide-loaded K562-E*01033 targets; format: cell-based, human; settings: targets incubated overnight at 26° C. with peptide; effectors NKL and Nishi
Procedure: as §1
NK cell-mediated cytotoxicity was measured using a 2 hours standard ^51Cr radioisotope release assay. Briefly, target cells were incubated for 15-20 hours at 26° C. with the various peptides at concentrations ranging from 1-300 μM, and then labeled with ^51Cr. Peptides were washed away prior to setting up the assays, except in some experiments where the non-protective hsp60sp, B7 R5V and hsp60 V5R was kept throughout the assay to assure higher levels of HLA-E expression, as compared to targets incubated with the protective B7sp. In mAb blocking experiments, cells were preincubated with mouse serum, or an irrelevant isotype matched antibody to block Fc-receptors. Blocking of either target or effector cells with mAbs was performed at 4° C., and the antibodies were also included during the assays. […]

[5] = mice; cited from earlier work
[6] = test system: CD94/NKG2A+ NK cells; settings: peptide presented by Qa-1^b; cited from earlier work
[7] = molecular target: T2, Qa-1^b (Mus musculus, UniProt P06339); settings: cited from earlier work
T2 sequence (P06339 21-357): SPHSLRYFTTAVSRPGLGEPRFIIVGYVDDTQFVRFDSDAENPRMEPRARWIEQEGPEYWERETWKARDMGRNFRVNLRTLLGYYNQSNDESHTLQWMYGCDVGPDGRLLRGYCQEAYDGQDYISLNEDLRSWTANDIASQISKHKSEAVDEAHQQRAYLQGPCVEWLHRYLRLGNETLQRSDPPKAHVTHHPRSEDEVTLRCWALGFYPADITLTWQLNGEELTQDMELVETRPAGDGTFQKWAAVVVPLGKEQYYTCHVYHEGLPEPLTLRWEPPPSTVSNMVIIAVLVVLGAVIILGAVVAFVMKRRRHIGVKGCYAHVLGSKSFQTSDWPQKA
T2 sequence (P01887 21-119 partner): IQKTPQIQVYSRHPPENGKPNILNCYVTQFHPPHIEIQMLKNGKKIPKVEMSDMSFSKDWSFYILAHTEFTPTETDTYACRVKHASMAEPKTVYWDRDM

[8] = molecular target: T3, HLA-E on cells, allele not told (human, UniProt P13747 22-358; P61769 21-119); assay: HLA-E surface stabilisation with synthetic peptide overnight at 26 C, flow cytometry
T3 construct: whole, on cells
Procedure: (§2) Synthetic peptides, purchased from Research Genetics, were dissolved in PBS. […] Cells and their HLA-E transfected derivatives were incubated with synthetic peptides (3-300 μM) at 26° C. for 15-20 hours in serum-free AIM-V medium (GibcoBRL, Paisley Scotland) at a concentration of 1-3.10⁶ cells/ml. Cells were then harvested, washed in PBS, stained with mAbs and analyzed by flow cytometry. Cells were subjected to stress by allowing them to grow at increasing cell density.

[9] = molecular target: T4, HLA-E*01033 on transfected K562 cells (K562-E*01033) (human); assay: HLA-E surface stabilisation on transfected K562 cells, synthetic peptide overnight at 26 C, flow cytometry
T4 construct: whole, on cells; MHC class I molecule that takes up added peptide in the 26 C stabilisation assay
Procedure: as §2

[10] = molecular target: T4, HLA-E*01033 on transfected K562 cells …; assay: HLA-E surface stabilisation on K562-E*01033 cells, DX17 staining, flow cytometry
Procedure: as §2

[11] = molecular target: T3, HLA-E on cells, allele not told; assay: summary of the examples
[12] = molecular target: T4, HLA-E*01033 on transfected K562 cells …; assay: HLA-E surface expression on K562-E*01033 cells after the cytotoxic assay, DX17 staining, flow cytometry
[13] = molecular target: T3, HLA-E on cells, allele not told; assay: HLA-E surface stabilisation on transfected K562 and 721.221 cells, flow cytometry
Procedure: as §2

[14] = K562 cells transfected with HLA-E*01033 or HLA-E*0101

In the case of QMRPVSRVL [hsp60sp], the “competition with B7sp (loss of HLA-E mediated protection from killing)” value [1] is reported as “could interfere with HLA-E mediated protection by competing with MHC class I signal peptides; also recorded: became more susceptible to killing with increasing concentrations of hsp60sp”, the “dissociation of HLA-E/peptide complexes” value [2] is reported as “dissociated faster than the HLA-E/B7sp” and the “HLA-E cell surface expression (stabilization)” value (“HLA-E cell surface expression” for short) [3, 14] is reported as “substantial increase in HLA-E expression; also recorded: stabilization of HLA-E”. The “protection of K562-E*01033 cells from killing by NK cells” value (shortened to “protection of K562-E*01033 cells”) [4] was “did not result in any significant protection; also recorded: fails to protect K562-E*01033 cells from killing by NK cells”.

For `CN(C(=O)c1c(O)c2ccccc2n(C)c1=O)c1ccccc1` [linomide], the “protection from developing EAE” value [5] is listed as “can protect mice from developing disease”.

With RGPGRAFVTI [P18I10, reference compound] the “competition with B7sp (loss of HLA-E mediated protection from killing)” value [1] was “remained protected from killing at all concentrations tested”.

For “L MLQGVDLL (N-terminal Leu) [hsp60.2, human hsp60 residues 39-47]”, the “HLA-E cell surface expression” value [3, 14] was “HLA-E stabilization was not observed”.

For “VMAPVTVLL [B7 R5V, B7sp with arginine to valine at position 5]”, the “competition with B7sp (loss of HLA-E mediated protection from killing)” value [1] was “even stronger competitor than hsp60sp”, the “HLA-E cell surface expression” value [3, 14] was “expressed high levels of HLA-E” and the “protection of K562-E*01033 cells” value [4] was “efficiently killed by CD94/NKG2A^+ NK cells”.

For “VMLAVDAVI [hsp60.3, human hsp60 residues 144-152]”, the “HLA-E cell surface expression” value [3, 14] was “HLA-E stabilization was not observed”.

In the case of “QMRPRSRVL [hsp60 V5R, hsp60sp with valine to arginine at position 5]”, the “protection of K562-E*01033 cells” value [4] is reported as “not sufficient to restore protection from killing”.

In the case of “GMKFDRGYI [hsp60.4, human hsp60 residues 216-224]”, the “protection from CD94/NKG2A+ NK cells” value [6] is given as “did not induce protection from CD94/NKG2A^+ NK cells; also recorded: fail to protect the cells from NK cell mediated lysis”, the “competition with B7sp (loss of HLA-E mediated protection from killing)” value [1] is given as “not able to compete with B7sp; also recorded: could not compete with the B7sp for binding to HLA-E” and the “binding to Qa-1^b” value [7] is given as “bind to mouse Qa-1^b molecules; also recorded: could bind to Qa-1^b; also recorded: binds to Qa-1^b”. For the same molecule, the “competition with Qdm-peptide for binding to Qa-1^b” value ([7]; even when mixed in 100,000-fold excess with 1 mM Qdm) was “failed to compete with the protective Qdm-peptide for binding to Qa-1^b; also recorded: nor could it reportedly compete for binding to Qa-1^b”, the “HLA-E cell surface expression” value ([3]; 721.221 cells) was “capable of stabilizing HLA-E molecules” and the “HLA-E cell surface expression” value [3, 14] was “capable of stabilizing HLA-E molecules; also recorded: can bind to HLA-E”.

For AMAPRTLLL [qdm, reference compound], the “binding to Qa-1^b” value [7] is given as “known to form relatively stable Qa-1b/peptide complex”.

LMLQGVDLL [hsp60.2 peptide (LMLQGVDLL)]: no binding [8].

VMAPRTVLL (also called B7 signal peptide) [B7sp (VMAPRTVLL), peptide from the leader sequence of HLA-B*0701]: binds [9].

VMAPVTVLL [B7 R5V (VMAPVTVLL)]: binds [10].

B1: hsp60sp (QMRPVSRVL), nonamer from the signal sequence of human hsp60 (peptide)
peptide: QMRPVSRVL
notes: Synthetic peptide (Research Genetics); also called hsp60 signal peptide; hsp60 leader peptide
B1: binds [9]; binds [11].

QMRPRSRVL [hsp60 V5R (QMRPRSRVL)]: binds [12].

VMLAVDAVI [hsp60.3 peptide (VMLAVDAVI)]: no binding [8].

GMKFDRGYI [hsp60.4 peptide (GMKFDRGYI)]: binds [13].
